Reference: doi:10.1101/794511 (bioRxiv, 2019)

B1: Ascl1 amino acids 92-231 containing the bHLH domain, His-tagged (domain or fragment)
chain: MRCKRRLNFSGFGYSLPQQQPAAVARRNERERNRVKLVNLGFATLREHVPNGAANKKMSKVETLRSAVEYIRALQQLLDEHDAVSAAFQAGVLSPTISPNYSNDLNSMAGSPVSSYSSDEGSYDPLSPEEQELLDFTNWF

Key:
[1] = molecular target: B1; experiment: native gel or EMSA
native gel or EMSA = molecular target: the molecule itself; experiment: native gel or EMSA

binding result [1]	Binder	binding result (native gel or EMSA)
binds	Gsx2^N253A amino acids 167-305 containing the mutated homeodomain, His-tagged (domain or fragment) not shown	
	B1	binds
